Measured values: patent US20090246142

Key:
[1] = tested on: MMP-2 cleavable peptide substrate KGPLGVRGC, PEG on the lysine, on biotin and NeutrAvidin nanoparticles (Example 1)
[2] = tested on: MMP-2 substrate G-K(TAMRA)-G-P-L-G-V-R-G-C-CONH2 with 20 kDa PEG, on ligand (biotin) TSACs (Example 3)
[3] = tested on: MMP-7 substrate G-K(TAMRA)-G-V-P-L-S-L-T-M-G-C-CONH2 with 20 kDa PEG, on receptor (NeutrAvidin) TSACs (Example 3)
[4] = tested on: MMP-7-MMP-2 tandem substrate TAMRA-G-K-G-V-P-L-S-L-T-M-Ahx-G-P-L-G-V-R-G-C-CONH2 with 20 kDa PEG, on ligand (biotin) TSACs (Example 3)
[5] = tested on: T1, TAMRA-(Ahx)SRVGEEEHVYSFPNKQKSAEC-CONH2 (unphosphorylated Abl substrate derived from paxillin) on nanoparticles (Y-Abl TSACs)
T1 sequence: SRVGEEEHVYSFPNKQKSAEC

Chain of recombinant catalytic domain of matrix metalloproteinase-2 (MMP-2; Biomol) (chain, as listed by the source): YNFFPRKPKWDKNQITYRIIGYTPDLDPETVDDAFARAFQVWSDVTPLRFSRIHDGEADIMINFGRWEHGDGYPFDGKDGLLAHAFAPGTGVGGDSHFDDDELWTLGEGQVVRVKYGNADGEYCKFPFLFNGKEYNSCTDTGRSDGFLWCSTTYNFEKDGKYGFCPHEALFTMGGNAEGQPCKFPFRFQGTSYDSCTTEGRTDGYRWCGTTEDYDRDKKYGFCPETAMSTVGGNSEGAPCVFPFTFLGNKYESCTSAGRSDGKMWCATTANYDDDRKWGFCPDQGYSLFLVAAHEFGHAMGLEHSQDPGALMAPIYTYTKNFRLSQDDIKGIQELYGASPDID

Substance | TSAC assembly (extinction at 600 nm, AFM) [1] | lowest MMP-2 concentration detected by T2 relaxation (MRI) [1] | TSAC assembly in DLS [2] | TSAC assembly in DLS [3] | hydrodynamic radius increase in DLS [4] | TSAC assembly in DLS (hydrodynamic radius) [5] | lowest kinase amount giving quantifiable T2 relaxation enhancement (MRI) [5]
recombinant catalytic domain of matrix metalloproteinase-2 (MMP-2; Biomol) | The TSACs with the scrambled peptide exhibit markedly decreased assembly compared to the specific peptide sequence | TSACs at a 10 pM concentration were sensitive to at least 170 ng/ml (9.4 U/ml) of MMP-2 | Addition of 0.4 µg MMP-2 actuates TSAC assembly, while 0.4 µg MMP-7 or no enzyme is insufficient | addition of 0.4 µg MMP-7 induces assembly, while 0.4 µg MMP-2 cannot | Hydrodynamic radii increased more than 5-fold in the presence of either enzyme or both enzymes | – | –
Abl kinase (New England Biolabs) | – | – | – | – | – | Abl kinase rapidly directed assembly in solutions containing Y-Abl TSACs with SH2 TSACs | as little as 11 fentomoles of added kinase (110 pM kinase concentrations=0.05 U/µl
